In patent publication US20260250322A1, “NEW PEPTIDES AS SELECTIVE IL-23 RECEPTOR INHIBITORS” (SANOFI, priority 2023, published 2026):
Numbered stars: 1 amine (or outer) side, 2 acyl side, 3 side chain; on linkers, the order of the positions; unused ones are H or OH. Bridge positions count the residues as written; N and C are the ends. Square brackets hold non-standard residues; d marks the D form. Tyr(Me) = Yme = 4-methoxy-L-phenylalanine (O-methyl-tyrosine), COc1ccc(C[C@H](N[*:1])C(=O)[*:2])cc1; Trp(1-Me) = Cn1cc(C[C@H](N)C(=O)O)c2ccccc21; dAla(4-thiazolyl) = N[C@H](Cc1cscn1)C(=O)O; 1Nal = N[C@@H](Cc1cccc2ccccc12)C(=O)O; 2Nal = N[C@@H](Cc1ccc2ccccc2c1)C(=O)O; Cit = NC(=O)NCCC[C@H](N)C(=O)O; αMeL = CC(C)C[C@](C)(N)C(=O)O; Orn = NCCC[C@H](N)C(=O)O; Aib = CC(C)(N)C(=O)O

B1: peptide compound SEQ ID NO: 3 (peptide)
peptide: Ac-[dK]NTWQR[Tyr(Me)][2Nal][Aib]DNN-NH2
modifications: lactam 1-10
SMILES: COc1ccc(C[C@@H]2NC(=O)[C@H](CCCNC(=N)N)NC(=O)[C@H](CCC(N)=O)NC(=O)[C@H](Cc3c[nH]c4ccccc34)NC(=O)[C@H]([C@@H](C)O)NC(=O)[C@H](CC(N)=O)NC(=O)[C@H](NC(C)=O)CCCCNC(=O)C[C@@H](C(=O)N[C@@H](CC(N)=O)C(=O)N[C@@H](CC(N)=O)C(N)=O)NC(=O)C(C)(C)NC(=O)[C@H](Cc3ccc4ccccc4c3)NC2=O)cc1
B2: peptide compound SEQ ID NO: 32 (peptide)
peptide: Ac-[dK]NTWQ[Aib][Tyr(Me)][2Nal][Aib]DNN-NH2
modifications: lactam 1-10
SMILES: COc1ccc(C[C@@H]2NC(=O)C(C)(C)NC(=O)[C@H](CCC(N)=O)NC(=O)[C@H](Cc3c[nH]c4ccccc34)NC(=O)[C@H]([C@@H](C)O)NC(=O)[C@H](CC(N)=O)NC(=O)[C@H](NC(C)=O)CCCCNC(=O)C[C@@H](C(=O)N[C@@H](CC(N)=O)C(=O)N[C@@H](CC(N)=O)C(N)=O)NC(=O)C(C)(C)NC(=O)[C@H](Cc3ccc4ccccc4c3)NC2=O)cc1
B3: peptide compound SEQ ID NO: 23 (peptide)
peptide: Ac-[dK]NT[Trp(1-Me)]QR[Tyr(Me)][1Nal][αMeL]DNN-NH2
modifications: lactam 1-10
SMILES: COc1ccc(C[C@@H]2NC(=O)[C@H](CCCNC(=N)N)NC(=O)[C@H](CCC(N)=O)NC(=O)[C@H](Cc3cn(C)c4ccccc34)NC(=O)[C@H]([C@@H](C)O)NC(=O)[C@H](CC(N)=O)NC(=O)[C@H](NC(C)=O)CCCCNC(=O)C[C@@H](C(=O)N[C@@H](CC(N)=O)C(=O)N[C@@H](CC(N)=O)C(N)=O)NC(=O)[C@](C)(CC(C)C)NC(=O)[C@H](Cc3cccc4ccccc34)NC2=O)cc1
B4: peptide compound SEQ ID NO: 10 (peptide)
peptide: Ac-[dK]NT[Trp(1-Me)]QR[Tyr(Me)][2Nal]K(Ac)DNN-NH2
modifications: lactam 1-10
SMILES: COc1ccc(C[C@@H]2NC(=O)[C@H](CCCNC(=N)N)NC(=O)[C@H](CCC(N)=O)NC(=O)[C@H](Cc3cn(C)c4ccccc34)NC(=O)[C@H]([C@@H](C)O)NC(=O)[C@H](CC(N)=O)NC(=O)[C@H](NC(C)=O)CCCCNC(=O)C[C@@H](C(=O)N[C@@H](CC(N)=O)C(=O)N[C@@H](CC(N)=O)C(N)=O)NC(=O)[C@H](CCCCNC(C)=O)NC(=O)[C@H](Cc3ccc4ccccc4c3)NC2=O)cc1
B5: peptide compound SEQ ID NO: 2 (peptide)
peptide: Ac-[dK]NTWQA[Tyr(Me)][2Nal][Aib]DNN-NH2
modifications: lactam 1-10
SMILES: COc1ccc(C[C@@H]2NC(=O)[C@H](C)NC(=O)[C@H](CCC(N)=O)NC(=O)[C@H](Cc3c[nH]c4ccccc34)NC(=O)[C@H]([C@@H](C)O)NC(=O)[C@H](CC(N)=O)NC(=O)[C@H](NC(C)=O)CCCCNC(=O)C[C@@H](C(=O)N[C@@H](CC(N)=O)C(=O)N[C@@H](CC(N)=O)C(N)=O)NC(=O)C(C)(C)NC(=O)[C@H](Cc3ccc4ccccc4c3)NC2=O)cc1
B6: peptide compound SEQ ID NO: 29 (peptide)
peptide: Ac-[dK]NTWQR[Tyr(Me)][2Nal][Cit]DNN-NH2
modifications: lactam 1-10
SMILES: COc1ccc(C[C@@H]2NC(=O)[C@H](CCCNC(=N)N)NC(=O)[C@H](CCC(N)=O)NC(=O)[C@H](Cc3c[nH]c4ccccc34)NC(=O)[C@H]([C@@H](C)O)NC(=O)[C@H](CC(N)=O)NC(=O)[C@H](NC(C)=O)CCCCNC(=O)C[C@@H](C(=O)N[C@@H](CC(N)=O)C(=O)N[C@@H](CC(N)=O)C(N)=O)NC(=O)[C@H](CCCNC(N)=O)NC(=O)[C@H](Cc3ccc4ccccc4c3)NC2=O)cc1
B7: peptide compound SEQ ID NO: 13 (peptide)
peptide: Ac-[dD]NTWQR[Tyr(Me)][2Nal][Aib][Orn]NN-NH2
modifications: lactam 1-10
SMILES: COc1ccc(C[C@@H]2NC(=O)[C@H](CCCNC(=N)N)NC(=O)[C@H](CCC(N)=O)NC(=O)[C@H](Cc3c[nH]c4ccccc34)NC(=O)[C@H]([C@@H](C)O)NC(=O)[C@H](CC(N)=O)NC(=O)[C@H](NC(C)=O)CC(=O)NCCC[C@@H](C(=O)N[C@@H](CC(N)=O)C(=O)N[C@@H](CC(N)=O)C(N)=O)NC(=O)C(C)(C)NC(=O)[C@H](Cc3ccc4ccccc4c3)NC2=O)cc1
B8: peptide compound SEQ ID NO: 21 (peptide)
peptide: Ac-[dK]NTWQ[Aib][Tyr(Me)][1Nal][Aib]DNN-NH2
modifications: lactam 1-10
SMILES: COc1ccc(C[C@@H]2NC(=O)C(C)(C)NC(=O)[C@H](CCC(N)=O)NC(=O)[C@H](Cc3c[nH]c4ccccc34)NC(=O)[C@H]([C@@H](C)O)NC(=O)[C@H](CC(N)=O)NC(=O)[C@H](NC(C)=O)CCCCNC(=O)C[C@@H](C(=O)N[C@@H](CC(N)=O)C(=O)N[C@@H](CC(N)=O)C(N)=O)NC(=O)C(C)(C)NC(=O)[C@H](Cc3cccc4ccccc34)NC2=O)cc1
B9: peptide IL-23 receptor inhibitor SEQ. ID NO. 24 (peptide)
peptide: Ac-[dK]NT[Trp(1-Me)]QR[Tyr(Me)][2Nal][αMeL]DNN-NH2
modifications: lactam 1-10
SMILES: COc1ccc(C[C@@H]2NC(=O)[C@H](CCCNC(=N)N)NC(=O)[C@H](CCC(N)=O)NC(=O)[C@H](Cc3cn(C)c4ccccc34)NC(=O)[C@H]([C@@H](C)O)NC(=O)[C@H](CC(N)=O)NC(=O)[C@H](NC(C)=O)CCCCNC(=O)C[C@@H](C(=O)N[C@@H](CC(N)=O)C(=O)N[C@@H](CC(N)=O)C(N)=O)NC(=O)[C@](C)(CC(C)C)NC(=O)[C@H](Cc3ccc4ccccc4c3)NC2=O)cc1
B10: peptide compound SEQ ID NO: 12 (peptide)
peptide: Ac-[dD]NTWQR[Tyr(Me)][2Nal][Aib]KNN-NH2
modifications: lactam 1-10
SMILES: COc1ccc(C[C@@H]2NC(=O)[C@H](CCCNC(=N)N)NC(=O)[C@H](CCC(N)=O)NC(=O)[C@H](Cc3c[nH]c4ccccc34)NC(=O)[C@H]([C@@H](C)O)NC(=O)[C@H](CC(N)=O)NC(=O)[C@H](NC(C)=O)CC(=O)NCCCC[C@@H](C(=O)N[C@@H](CC(N)=O)C(=O)N[C@@H](CC(N)=O)C(N)=O)NC(=O)C(C)(C)NC(=O)[C@H](Cc3ccc4ccccc4c3)NC2=O)cc1
B11: peptide compound SEQ ID NO: 25 (peptide)
peptide: Ac-[dK]NT[Trp(1-Me)]QR[Tyr(Me)][2Nal][dAla(4-thiazolyl)]DNN-NH2
modifications: lactam 1-10
SMILES: COc1ccc(C[C@@H]2NC(=O)[C@H](CCCNC(=N)N)NC(=O)[C@H](CCC(N)=O)NC(=O)[C@H](Cc3cn(C)c4ccccc34)NC(=O)[C@H]([C@@H](C)O)NC(=O)[C@H](CC(N)=O)NC(=O)[C@H](NC(C)=O)CCCCNC(=O)C[C@@H](C(=O)N[C@@H](CC(N)=O)C(=O)N[C@@H](CC(N)=O)C(N)=O)NC(=O)[C@@H](Cc3cscn3)NC(=O)[C@H](Cc3ccc4ccccc4c3)NC2=O)cc1
B12: peptide compound SEQ ID NO: 31 (peptide)
peptide: Ac-[dK]NTWQV[Tyr(Me)][2Nal][Aib]DNN-NH2
modifications: lactam 1-10
SMILES: COc1ccc(C[C@@H]2NC(=O)[C@H](C(C)C)NC(=O)[C@H](CCC(N)=O)NC(=O)[C@H](Cc3c[nH]c4ccccc34)NC(=O)[C@H]([C@@H](C)O)NC(=O)[C@H](CC(N)=O)NC(=O)[C@H](NC(C)=O)CCCCNC(=O)C[C@@H](C(=O)N[C@@H](CC(N)=O)C(=O)N[C@@H](CC(N)=O)C(N)=O)NC(=O)C(C)(C)NC(=O)[C@H](Cc3ccc4ccccc4c3)NC2=O)cc1
B13: peptide compound SEQ ID NO: 20 (peptide)
peptide: Ac-[dK]NTWQV[Tyr(Me)][1Nal][Aib]DNN-NH2
modifications: lactam 1-10
SMILES: COc1ccc(C[C@@H]2NC(=O)[C@H](C(C)C)NC(=O)[C@H](CCC(N)=O)NC(=O)[C@H](Cc3c[nH]c4ccccc34)NC(=O)[C@H]([C@@H](C)O)NC(=O)[C@H](CC(N)=O)NC(=O)[C@H](NC(C)=O)CCCCNC(=O)C[C@@H](C(=O)N[C@@H](CC(N)=O)C(=O)N[C@@H](CC(N)=O)C(N)=O)NC(=O)C(C)(C)NC(=O)[C@H](Cc3cccc4ccccc34)NC2=O)cc1
B14: peptide compound SEQ ID NO: 15 (peptide)
peptide: Ac-[dK]NTWQR[Tyr(Me)][2Nal][Aib]DNN-NH2
modifications: lactam 1-10
SMILES: COc1ccc(C[C@@H]2NC(=O)[C@H](CCCNC(=N)N)NC(=O)[C@H](CCC(N)=O)NC(=O)[C@H](Cc3c[nH]c4ccccc34)NC(=O)[C@H]([C@@H](C)O)NC(=O)[C@H](CC(N)=O)NC(=O)[C@H](NC(C)=O)CCCCNC(=O)C[C@@H](C(=O)N[C@@H](CC(N)=O)C(=O)N[C@@H](CC(N)=O)C(N)=O)NC(=O)C(C)(C)NC(=O)[C@H](Cc3ccc4ccccc4c3)NC2=O)cc1

Each binder was assayed against T1, IL-23 receptor on the surface of HEK-Blue IL-23 cells (UniProt Q5VWK5 24-629, limits assumed) (assay: cell-based or functional assay).
T1 sequence (looked up): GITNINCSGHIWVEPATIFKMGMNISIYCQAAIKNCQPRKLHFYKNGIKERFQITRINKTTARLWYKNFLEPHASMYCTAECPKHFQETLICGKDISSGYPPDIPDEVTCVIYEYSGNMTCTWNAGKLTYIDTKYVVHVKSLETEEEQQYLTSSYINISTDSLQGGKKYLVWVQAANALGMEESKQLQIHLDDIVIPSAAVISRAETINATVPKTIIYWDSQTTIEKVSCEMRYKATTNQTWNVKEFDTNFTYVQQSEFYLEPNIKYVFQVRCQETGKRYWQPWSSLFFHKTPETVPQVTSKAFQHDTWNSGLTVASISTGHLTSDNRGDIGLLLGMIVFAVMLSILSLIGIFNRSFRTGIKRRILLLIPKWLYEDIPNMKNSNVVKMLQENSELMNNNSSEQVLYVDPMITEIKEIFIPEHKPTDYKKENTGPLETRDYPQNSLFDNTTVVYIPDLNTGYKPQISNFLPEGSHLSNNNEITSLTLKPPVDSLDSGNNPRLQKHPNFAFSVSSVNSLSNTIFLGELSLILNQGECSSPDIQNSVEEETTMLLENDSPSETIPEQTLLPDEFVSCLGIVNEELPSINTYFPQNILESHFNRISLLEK
B1 was tested, and the “Inhibition of IL-23 induced pSTAT3 (IC50 nM)” value (from here on “Inhibition”) was 430 nM.
B2 was tested, and the “Inhibition” value was 320 nM.
With B3 the “Inhibition” value was 1960 nM.
B4 was tested, and the “Inhibition” value was 1440 nM.
B5 was tested, and the “Inhibition” value was 234 nM.
In the case of B6, the “Inhibition” value is reported as 2720 nM.
With B7 the “Inhibition” value was 1150 nM.
With B8 the “Inhibition” value was 7500 nM.
In the case of B9, the “Inhibition” value is reported as 385 nM.
B10 was tested, and the “Inhibition” value was 6590 nM.
B11 was tested, and the “Inhibition” value was 3830 nM.
B12 was tested, and the “Inhibition” value was 128 nM.
B13 was tested, and the “Inhibition” value was 10000 nM.
With B14 the “Inhibition” value was 426 nM.
